The values that follow come from patent publication US20070021593A1.

One may read the IC50 as the concentration that gives 50% inhibition. The low end stands for greater potency in that assay, the high end for weaker potency in that assay.

For experiment [1], the target named is CXCL8 receptors on bovine peripheral blood neutrophils. The experiment in a line: biotCXCL8 (1000 ng/ml) on medium-treated bovine neutrophils; alkaline phosphatase-streptavidin and ABTS.
Experiment [2] has the same target. The experiment in a line: preliminary radioligand binding on bovine neutrophils.
For experiment [3] the target is unchanged. The experiment is described as follows: competition with 20 pM 125I-CXCL8 on 10^6 bovine neutrophils, 45 min on ice.
For experiment [4] the target is unchanged. The experiment is described as follows: biotCXCL8 binding inhibition on bovine neutrophils; 10 ng/ml unlabeled CXCL8 2 h at 4 C, wash, then 1 ug/ml biotCXCL8; ELISA read-out. For orientation: An ELISA detects its analyte on a solid surface through an enzyme-linked reagent.
Experiment [5] has the same target. The experiment is described as follows: competition with 20 pM 125I-CXCL8 on bovine neutrophils; reference wildtype CXCL8.
Experiment [6] shares this target. The experiment is described as follows: cell-based or functional assay.
Experiment [7] has the same target. The experiment is described as follows: biotCXCL8 binding inhibition on bovine neutrophils; 10 ng/ml analogue 2 h at 4 C, wash, then 1 ug/ml biotCXCL8; ELISA read-out.

Several values for one entry are separate records, joined by “and”; a condition that tells them apart may be missing. Identical values can stand only once.

The molecule “biotinylated CXCL8 (from UniProt P79255 23-101) (ligand)” came in with an OD405 in experiment [1] of 0.5 to 0.6 OD405.

On to “125I-CXCL8 (from UniProt P79255 23-101) (ligand)”, for which the concentration that just saturated the high affinity receptors in experiment [2] came out at 20 pM.

“CXCL8 (wild type, unlabeled) (from UniProt P79255 23-101) (ligand)” yielded an IC50 in experiment [3] of 0.12 nM. For the same molecule, in experiment [4], the percent of biotCXCL8 binding inhibited is 30%.

B1: bovine CXCL8(3-74)K11R/G31P (ligand)
chain: TELRCQCIRTHSTPFHPKFIKELRVIESPPHCENSEIIVKLTNGNEVCLNPKEKWVQKVVQVFVKRAEKQDP
Turning to B1, the concentration for half-maximal inhibition (IC50) in experiment [3] worked out at 0.004 nM. The fold more effective than wildtype CXCL8 in inhibiting 125I-CXCL8 binding in experiment [5] was 100 fold. Besides, in experiment [6], the IC50, inhibition of bovine neutrophil chemotaxis to 1 ug/ml (129 nM) CXCL8 amounted to 0.11 nM; the concentration for complete blocking of bovine neutrophil chemotaxis to 1 ug/ml CXCL8 was determined as 10 nM; the concentration for complete inhibition of bovine neutrophil chemotaxis to human CXCL5, CXCL1 or CXCL8 was 3 nM and 20 nM; the concentration reducing by 50% the bovine neutrophil chemotactic response to 10 ng/ml human CXCL8 is 0.04 nM. In experiment [6], this molecule had a concentration reducing to 50% the bovine neutrophil chemotactic response to 1 ng/ml human CXCL1 of 0.26 nM, a concentration reducing to 50% the bovine neutrophil chemotactic response to 1 ng/ml human CXCL5 of 0.06 nM and a reduction of the chemotactic response of bovine neutrophils to 1 ug/ml (129 nM) CXCL8 by 12.9 pM analogue of 33%. Moreover, the percent of subsequent biotCXCL8 binding blocked in experiment [7] came to 95%.

B2: bovine CXCL8(3-74)K11R/P32G (ligand)
chain: TELRCQCIRTHSTPFHPKFIKELRVIESGGHCENSEIIVKLTNGNEVCLNPKEKWVQKVVQVFVKRAEKQDP
Consider B2, for which the percent of CXCL8 binding blocked in experiment [7] was 48%.
